Columns and labels:
CsDQD/SDHb [1] = target: CsDQD/SDHb (Camellia sinensis, UniProt A0A3G3BK08, G296T/D398N/I399R/D400T, form not given); assay: HPLC product quantification; assay type: biochemical; conditions: MTCsDQD/SDHb; SA oxidation with NADP+; residue numbers after AtDQD/SDH
CsSDHa = target: T1, CsSDHa (Camellia sinensis, UniProt A0A3G3BK14); assay: HPLC product quantification; assay type: biochemical; conditions: 1 mM each, BTP-HCl pH 7.5, 30°C
T1 construct: SDH unit only of CsDQD/SDHa (Ile-328 to Gly-588 in AtSDH numbering), MBP fusion from pMAL-c2x, E. coli

CsDQD/SDHb [2] = target: CsDQD/SDHb (Camellia sinensis, UniProt A0A3G3BK08); assay: HPLC product quantification; assay type: biochemical; conditions: SA oxidation, 1 mM SA, 1 mM NADP+; BTP-HCl pH 7.5, 30°C, 30 min; very low activity, Km not determinable
[3] = substrate: NC(=O)C1=CN([C@@H]2O[C@H](COP(=O)(O)OP(=O)(O)OC[C@H]3O[C@@H](n4cnc5c(N)ncnc54)[C@H](OP(=O)(O)O)[C@@H]3O)[C@@H](O)[C@H]2O)C=CC1; assay: HPLC product assay, Michaelis-Menten; assay type: biochemical, Camellia sinensis; conditions: 3-DHS reduction to SA, co-substrate 3-DHS 1.5 mM, BTP-HCl pH 8.5, 30°C, 3 min
Source text: (§1) HPLC product assay, Michaelis-Menten on CsDQD/SDHd

[4] = substrate: NC(=O)c1ccc[n+]([C@@H]2O[C@H](COP(=O)(O)OP(=O)(O)OC[C@H]3O[C@@H](n4cnc5c(N)ncnc54)[C@H](OP(=O)(O)O)[C@@H]3O)[C@@H](O)[C@H]2O)c1; assay: HPLC product assay, Michaelis-Menten; assay type: biochemical, Camellia sinensis; conditions: SA oxidation to 3-DHS, co-substrate SA 1.5 mM, BTP-HCl pH 8.5, 30°C, 3 min
Source text: as §1

[5] = substrate: O=C(O)C1=CC(=O)[C@@H](O)[C@H](O)C1; assay: HPLC product assay, Michaelis-Menten; assay type: biochemical, Camellia sinensis; conditions: 3-DHS reduction to SA, co-substrate NADPH 1.5 mM, BTP-HCl pH 8.5, 30°C, 3 min
Source text: as §1

[6] = substrate: O=C(O)C1=C[C@@H](O)[C@@H](O)[C@H](O)C1; assay: HPLC product assay, Michaelis-Menten; assay type: biochemical, Camellia sinensis; conditions: SA oxidation to 3-DHS, co-substrate NADP+ 1.5 mM, BTP-HCl pH 8.5, 30°C, 3 min
Source text: as §1

[7] = substrate: NC(=O)C1=CN([C@@H]2O[C@H](COP(=O)(O)OP(=O)(O)OC[C@H]3O[C@@H](n4cnc5c(N)ncnc54)[C@H](OP(=O)(O)O)[C@@H]3O)[C@@H](O)[C@H]2O)C=CC1; assay: HPLC product assay, Michaelis-Menten; assay type: biochemical, Camellia sinensis; conditions: 3-DHS reduction to SA, co-substrate 3-DHS 1.5 mM, BTP-HCl pH 8.5, 30°C, 3 min; remark: listed apart in the source
Source text: (§2) HPLC product assay, Michaelis-Menten on CsDQD/SDHc

[8] = substrate: NC(=O)c1ccc[n+]([C@@H]2O[C@H](COP(=O)(O)OP(=O)(O)OC[C@H]3O[C@@H](n4cnc5c(N)ncnc54)[C@H](OP(=O)(O)O)[C@@H]3O)[C@@H](O)[C@H]2O)c1; assay: HPLC product assay, Michaelis-Menten; assay type: biochemical, Camellia sinensis; conditions: SA oxidation to 3-DHS, co-substrate SA 1.5 mM, BTP-HCl pH 8.5, 30°C, 3 min; remark: listed apart in the source
Source text: as §2

[9] = substrate: O=C(O)C1=CC(=O)[C@@H](O)[C@H](O)C1; assay: HPLC product assay, Michaelis-Menten; assay type: biochemical, Camellia sinensis; conditions: 3-DHS reduction to SA, co-substrate NADPH 1.5 mM, BTP-HCl pH 8.5, 30°C, 3 min; remark: listed apart in the source
Source text: as §2

[10] = substrate: O=C(O)C1=C[C@@H](O)[C@@H](O)[C@H](O)C1; assay: HPLC product assay, Michaelis-Menten; assay type: biochemical, Camellia sinensis; conditions: SA oxidation to 3-DHS, co-substrate NADP+ 1.5 mM, BTP-HCl pH 8.5, 30°C, 3 min; remark: listed apart in the source
Source text: as §2

[11] = substrate: NC(=O)C1=CN([C@@H]2O[C@H](COP(=O)(O)OP(=O)(O)OC[C@H]3O[C@@H](n4cnc5c(N)ncnc54)[C@H](OP(=O)(O)O)[C@@H]3O)[C@@H](O)[C@H]2O)C=CC1; assay: HPLC product assay, Michaelis-Menten; assay type: biochemical, Camellia sinensis; conditions: 3-DHS reduction to SA, co-substrate 3-DHS 1.5 mM, BTP-HCl pH 8.5, 30°C, 3 min; remark: listed apart in the source
Source text: (§3) HPLC product assay, Michaelis-Menten on CsDQD/SDHa

[12] = substrate: NC(=O)c1ccc[n+]([C@@H]2O[C@H](COP(=O)(O)OP(=O)(O)OC[C@H]3O[C@@H](n4cnc5c(N)ncnc54)[C@H](OP(=O)(O)O)[C@@H]3O)[C@@H](O)[C@H]2O)c1; assay: HPLC product assay, Michaelis-Menten; assay type: biochemical, Camellia sinensis; conditions: SA oxidation to 3-DHS, co-substrate SA 1.5 mM, BTP-HCl pH 8.5, 30°C, 3 min; remark: listed apart in the source
Source text: as §3

[13] = substrate: O=C(O)C1=CC(=O)[C@@H](O)[C@H](O)C1; assay: HPLC product assay, Michaelis-Menten; assay type: biochemical, Camellia sinensis; conditions: 3-DHS reduction to SA, co-substrate NADPH (per table; b27 pairs the cofactors the other way round), 1.5 mM, BTP-HCl pH 8.5, 30°C, 3 min
Source text: as §3

[14] = substrate: O=C(O)C1=C[C@@H](O)[C@@H](O)[C@H](O)C1; assay: HPLC product assay, Michaelis-Menten; assay type: biochemical, Camellia sinensis; conditions: SA oxidation to 3-DHS, co-substrate NADP+ (per table; b27 pairs the cofactors the other way round), 1.5 mM, BTP-HCl pH 8.5, 30°C, 3 min
Source text: as §3

Sequence of CsDQD/SDHb (Camellia sinensis, UniProt A0A3G3BK08, G296T/D398N/I399R/D400T, form not given) (A0A3G3BK08 entry or part of it G296T/D398N/I399R/D400T, form open): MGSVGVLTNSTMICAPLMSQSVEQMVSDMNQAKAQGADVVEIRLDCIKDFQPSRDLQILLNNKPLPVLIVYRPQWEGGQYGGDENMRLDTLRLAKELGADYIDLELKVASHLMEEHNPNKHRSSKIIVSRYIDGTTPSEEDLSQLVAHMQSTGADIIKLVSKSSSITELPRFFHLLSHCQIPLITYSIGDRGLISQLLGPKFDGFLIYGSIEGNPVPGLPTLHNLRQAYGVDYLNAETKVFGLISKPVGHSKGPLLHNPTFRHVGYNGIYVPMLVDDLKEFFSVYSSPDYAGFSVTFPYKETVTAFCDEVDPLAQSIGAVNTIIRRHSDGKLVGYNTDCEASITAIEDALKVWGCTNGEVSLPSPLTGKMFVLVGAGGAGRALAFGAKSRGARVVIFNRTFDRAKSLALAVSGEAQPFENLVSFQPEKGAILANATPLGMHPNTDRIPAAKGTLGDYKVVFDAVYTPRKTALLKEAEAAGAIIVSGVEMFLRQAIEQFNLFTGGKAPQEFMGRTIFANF
Sequence of CsDQD/SDHb (Camellia sinensis, UniProt A0A3G3BK08) (A0A3G3BK08 entry or part of it): as the sequence (A0A3G3BK08 entry or part of it G296T/D398N/I399R/D400T, form open) above, with T296G, N398D, R399I, T400D counted along it

## O=C(O)C1=C[C@@H](O)[C@@H](O)[C@H](O)C1 [SA]
CsDQD/SDHb [1]
  HPLC product quantification: six times higher oxidation activity of SA than CsDQD/SDHb
CsSDHa; SA oxidation with NADP+
  HPLC product quantification: a lower enzymatic activity for NADP^+-dependent oxidation of SA
CsDQD/SDHb [2]
  HPLC product quantification: CsDQD/SDHb exhibited the lowest SA oxidation activity but had no 3-DHS reduction activity

## O=C(O)C1=CC(=O)[C@@H](O)[C@H](O)C1 [3-DHS]
CsSDHa; 3-DHS reduction with NADPH
  HPLC product quantification: CsSDHa recombinant protein had an almost identical enzymatic activity for NADPH-dependent reduction of 3-DHS

B1: CsDQD/SDHd (Camellia sinensis) (protein)
chain: MTLSSIPISEGGRRNPTMICAPVMAENVDQMLLMMRKAKELGADLVEVRIDYLKNFSPHHDLQILIKQCPLPTLITYRPTWEGGQFDGDETRRQAALRQAVELGADYIDIELKVADEFYKLIQGKKPEKVKIIVSSHNYENTPSAEEIGNLAARIQATGADIVKIATTAQDITDSARIFQLLAHSQVPTIGIVMGERGLMSRILCAKFGGFLTFGALESGIVSAPGQPTLKDLLELYNFRQIGPDTKVHGVIGNPIGHSKSPHLYNTAFRSAGFNGIYLPLLVDSVANFFNTYSSPDFVGYSYTIPHKEAGLKCCDEVDPIAEAIGAISCMVRKPSDGKLIGYNVDYLGAIGAIEEALGGSNGSSNGAVSPLASKLFVVIGAGGAGKALAYGGKEKGARVVVANRTYEKAKELASKVDGEAITLAELDDFHPEDGMILANTTSVGMKPKTDATPISKKALNRYSLVFGAIYTPKWTRLLQEAQDSGAKVVFGTEMFINQAFVQFERFTGMPAPKELIRETLAKNT
[3]
  Km: 248.798 µM
  kcat/Km: 197 M⁻¹ s⁻¹
[4]
  Km: 46.342 µM
  kcat/Km: 128 M⁻¹ s⁻¹
[5]
  Km: 465.971 µM
  kcat/Km: 99.5 M⁻¹ s⁻¹
[6]
  Km: 610.643 µM
  kcat/Km: 138 M⁻¹ s⁻¹

B2: CsDQD/SDHc (Camellia sinensis) (protein)
chain: MASGSFSFATSDVQTSSSGVRSGPTLLCTPLIGTTVDQMLIDMRKAKEIGADMVEIRLDCLREFNPRPDLQILIKQSPLPTLVTYRPIWESGQYEGDENKRQDALRLAMELGADYIDVELQVAQEFNNSISAKKPEKFKVIVSSQNFHSTPSAEAIGNLVARIQATGADIVKIVTTALDITDVARIFQITVHSQIPMIGIAMGERGLISRLLSPKFNGYLTYAALEAGAISAPGQPTVKDLLDLYNFRLIRPDTKVYGIIGKPVGHSKSPLLFNESFKKVGLNSVYVHLLVDDVKKFFSTYSSVDFAGFSCTIPHKEVALECMDEIDQIAKKIGAINNIVRRPDGTLKSYNTDYIGAISAIEDGLRESNGSSPATSSPLAGKLFVVLGAGGAGKSLAYGAQQKGARVVVANRTFERAKELAEKVGGKALTLEEVNDFHPEEGMILANTTSVGMKPNIDLTPISKEALKHYDLVFDAIYTPKDTRLLREARECGKIIVYGTEMLIRQGFEQYKNFTGLQAPEELFRELMSRHA
[7]
  Km: 267.244 µM
  kcat/Km: 193 M⁻¹ s⁻¹
[8]
  Km: 114.553 µM
  kcat/Km: 372 M⁻¹ s⁻¹
[9]
  Km: 330.933 µM
  kcat/Km: 507 M⁻¹ s⁻¹
[10]
  Km: 199.653 µM
  kcat/Km: 536 M⁻¹ s⁻¹

B3: CsDQD/SDHa (Camellia sinensis) (protein)
chain: MELVAPVVAGCGVKMESEGMRKNSTLICVPLMADSVDQMLIYMNKAKLNGADLVEVRLDSLKSFNPPLDIETLIKRCPLPTLFTYRPKWEGGMYDGDESSRLEALQLAMELGADYIDVELQVIHEFNSSMHGKKPAKCKLIVSSHNYENTPSVEDLGNLVVKIQATGADIVKIATTALDITDAARVFQITVHSQVRGVPIIAMVMGERGLMARILCPKFGGYLTFGTLESGIVSAPGQPTMDDLVNLYNIRQIGPDTKVFGIIGKPVGHSKSPILYNEAFKKVGFNGVYLHLLVDDVANFLQTYSSTDFAGFSCTIPHKEAALKCCDEVDPVAKSIGAVNCIVRKSDGKFFGCNTDYVGAITAIEDALGGLQHVNGMVVSPLSGKLFVVIGAGGAGKALAYGAKAKGAKVVIANRTYERAKEIADTIGGDALSLADLSNFHPEDGMILANTTSIGMQPKVDETPVPKQALKSYALVFDAVYTPKITRLLREAEESGAKIVTGVEMFIGQAYEQFERFTGLPAPKELFGKIMAKY
[11]
  Km: 270.306 µM
  kcat/Km: 746 M⁻¹ s⁻¹
[12]
  Km: 138.031 µM
  kcat/Km: 845 M⁻¹ s⁻¹
[13]
  Km: 286.576 µM
  kcat/Km: 1410 M⁻¹ s⁻¹
[14]
  Km: 272.782 µM
  kcat/Km: 562 M⁻¹ s⁻¹

Reference: PMC6797610, “Functional Analysis of 3-Dehydroquinate Dehydratase/Shikimate Dehydrogenases Involved in Shikimate Pathway in Camellia sinensis” (Frontiers in Plant Science, 2019)
